Literature values, collected in paper PMC10769511.

Molecular target: histone H3K4me3 peptide (Homo sapiens) (UniProt P68431)

For PHF2 PHD-Jumonji (from UniProt O75151), the Kd is given as 160 nM.
